Reference: PMC6755802 (2019)

Molecular target: T1, IL-2Rβ ectodomain (SPR, Figure 4A) (human, UniProt P14784 27-240)
T1 chain: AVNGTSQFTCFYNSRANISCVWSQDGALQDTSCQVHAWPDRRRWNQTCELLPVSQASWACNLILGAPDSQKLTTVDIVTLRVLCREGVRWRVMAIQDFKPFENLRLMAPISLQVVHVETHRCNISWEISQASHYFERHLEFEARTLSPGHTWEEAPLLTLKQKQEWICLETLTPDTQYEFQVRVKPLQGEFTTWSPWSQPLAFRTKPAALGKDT
Assay: SPR

Kd: 3.3 nM
B1: Super-2 (ligand)
chain: APTSSSTKKTQLQLEHLLLDLQMILNGINNYKNPKLTRMLTFKFYMPKKATELKHLQCLEEELKPLEEVLNLAQSKNFHFDPRDVVSNINVFVLELKGSETTFMCEYADETATIVEFLNRWITFCQSIISTLT
